Reference: US8637465B2, “Fibroblast growth factor receptor-derived peptides binding to NCAM” (Kobenhavns Universitet, priority 2009, dated 2014)
Entries after “also recorded” stand apart in the source; their conditions may differ. Blank lines part the entries; values can stand above or below the molecule they belong to.

How the values were obtained:
[1] = target: T1, FGFR Ig2-NCAM F3(1-2) binding (Mus musculus, UniProt P16092); experiment: SPR analysis of inhibition of FGFR Ig2-NCAM F3(1-2) binding; set-up: species or system mouse FGFR1, rat NCAM; details: 20 μM Ig2 module of FGFR, indicated concentrations of SOS; FIG. 4
T1 construct: AGHHHHHH and amino acids 140-251 of FGFR (SwissProt p16092); made in house; host or cells: Pichia pastoris KM71
T1 sequence (P16092 140-251): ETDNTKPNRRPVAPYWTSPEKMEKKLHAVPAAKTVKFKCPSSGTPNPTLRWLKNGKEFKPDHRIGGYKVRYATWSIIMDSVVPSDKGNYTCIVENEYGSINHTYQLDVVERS
Method: The binding of 20 μM Ig2 module of FGFR to the immobilized NCAM F3 modules 1-2 was performed using indicated concentrations of SOS. The experiment was repeated 9 times. Immobilization of the NCAM and FGFR modules and binding analysis were performed using a BIAcore2000 instrument (Biosensor AB, Sweden) at 25° C. using 10 mM sodium phosphate containing 150 mM NaCl (pH 7.4) as running buffer. Data were analyzed by nonlinear curve fitting using the manufacturer's software. The FGFR Ig module 2 and NCAM F3 modules 1-2 were immobilized on sensor chip CM5 using an amine coupling kit (Biosensor AB) as follows: the chip was activated by 20 μl activation solution; the protein was immobilized using 12 μl of 20 μg/ml protein in 10 mM sodium acetate buffer (pH 6.0); the chip was blocked by 35 μl blocking solution. The curves corresponding to the difference between binding to ligand (immobilized molecule) and a blank chip were used for analysis. One of the identified clusters (the first one) is located in the close vicinity of the sites in Ig2 for binding of FGF, heparin and Ig2 (FIG. 3) (Plotnikov et al., 1999; Pellegrini et al., 2000). […] To verify this assumption, we tested sucrose octasulphate (SOS), a well-known heparin analogue, for its ability to inhibit binding of soluble Ig2 to the immobilized NCAM F3 modules.

[2] = target: T2, fibronectin modules (F3(1-2)) of NCAM (Rattus norvegicus, UniProt P13596); experiment: Binding of FGFR1-Ig2 derived peptides to immobilized fibronectin modules (F3(1-2)) of NCAM; details: FIG. 5 and FIG. 6
T2 construct: amino acids 507-611 and 507-705 of NCAM (SwissProt p13596), respectively; made in house; host or cells: Pichia pastoris KM71
Method: Immobilization of the NCAM and FGFR modules and binding analysis were performed using a BIAcore2000 instrument (Biosensor AB, Sweden) at 25° C. using 10 mM sodium phosphate containing 150 mM NaCl (pH 7.4) as running buffer. Data were analyzed by nonlinear curve fitting using the manufacturer's software. The FGFR Ig module 2 and NCAM F3 modules 1-2 were immobilized on sensor chip CM5 using an amine coupling kit (Biosensor AB) as follows: the chip was activated by 20 μl activation solution; the protein was immobilized using 12 μl of 20 μg/ml protein in 10 mM sodium acetate buffer (pH 6.0); the chip was blocked by 35 μl blocking solution. The curves corresponding to the difference between binding to ligand (immobilized molecule) and a blank chip were used for analysis.

NCAM F3 modules 1-2 = target: T3, NCAM F3 modules 1-2 (Rattus norvegicus, UniProt P13596); experiment: SPR binding of soluble FGFR Ig2 module to immobilized NCAM F3 modules 1-2; details: 25° C., pH 7.4, FIG. 1A, estimated
T3 construct: amino acids 507-611 and 507-705 of NCAM (SwissProt p13596), respectively; made in house; host or cells: Pichia pastoris KM71
Description: (§1) To study the binding properties between the FGFR Ig2 module and NCAM, we used recombinant proteins of the NCAM F3 modules 1-2 and the FGFR1 Ig2 module. Both proteins were properly folded as judged by one-dimensional NMR.
(§2) The Ig2 module of mouse FGFR1 (IIIc isoform) and rat NCAM F3 modules 1-2 were produced. Both proteins were expressed in a KM71 strain of yeast expression system of P. pastoris (Invitrogen, USA). The FGFR Ig module 2 consists of AGHHHHHH and amino acids 140-251 of FGFR (SwissProt p16092) and the combined F3 modules 1 and 2 consist of AGHHHHHH and amino acids 507-611 and 507-705 of NCAM (SwissProt p13596), respectively. For the protein expression the following media were used: BMGH (0.1 M potassium phosphate pH 6.0, 3.4 g/L yeast nitrogen base (without amino acids and ammonium sulphate), 10 g/L ammonium sulphate, 400 μg/L D-biotin, 60 mg/L L-histidine, 2% glycerol) and BMMH (0.1 M potassium phosphate pH 6.0, 3.4 g/L yeast nitrogen base (without amino acids and ammonium sulphate), 10 g/L ammonium sulphate, 400 μg/L D-biotin, 60 mg/L L-histidine, 1% methanol). […]
(§3) Immobilization of the NCAM and FGFR modules and binding analysis were performed using a BIAcore2000 instrument (Biosensor AB, Sweden) at 25° C. using 10 mM sodium phosphate containing 150 mM NaCl (pH 7.4) as running buffer. Data were analyzed by nonlinear curve fitting using the manufacturer's software. […]

FGFR Ig2-Ig3 construct = target: T4, FGFR Ig2-Ig3 construct (Mus musculus, UniProt P16092); details: SPR; Kiselyov et al., 2003; read-out: dissociation constant (Kd), NCAM F3 modules 1-2 binding to FGFR Ig2-Ig3 construct; cited from earlier work
T4 construct: the double-module FGFR Ig2-Ig3 construct
T4 sequence (P16092 141-365 limits assumed): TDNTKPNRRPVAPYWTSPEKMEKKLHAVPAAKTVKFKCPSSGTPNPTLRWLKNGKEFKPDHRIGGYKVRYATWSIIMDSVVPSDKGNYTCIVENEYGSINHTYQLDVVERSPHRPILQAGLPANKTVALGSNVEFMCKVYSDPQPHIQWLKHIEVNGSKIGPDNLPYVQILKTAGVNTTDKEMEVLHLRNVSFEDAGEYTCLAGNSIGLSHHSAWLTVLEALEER

FGFR1 Ig2 module = target: T5, FGFR1 Ig2 module (Mus musculus, UniProt P16092); experiment: SPR binding of soluble NCAM F3 modules 1-2 to immobilized FGFR Ig2 module; details: 25° C., pH 7.4, FIG. 1B, estimated
T5 construct: AGHHHHHH and amino acids 140-251 of FGFR (SwissProt p16092); made in house; host or cells: Pichia pastoris KM71
T5 sequence (P16092 140-251): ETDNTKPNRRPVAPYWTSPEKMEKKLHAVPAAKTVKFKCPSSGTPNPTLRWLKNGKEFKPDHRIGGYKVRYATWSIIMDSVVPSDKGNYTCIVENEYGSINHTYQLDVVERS
Description: as §1, §2, §3

Molecule: O=S(=O)(O)OC[C@H]1O[C@@](COS(=O)(=O)O)(O[C@H]2O[C@H](COS(=O)(=O)O)[C@@H](OS(=O)(=O)O)[C@H](OS(=O)(=O)O)[C@H]2OS(=O)(=O)O)[C@@H](OS(=O)(=O)O)[C@@H]1OS(=O)(=O)O [SOS, sucrose octasulphate]
inhibition of binding of soluble Ig2 to the immobilized NCAM F3 modules [1]: capable of inhibiting; also recorded: inhibitory effect

binding to the immobilized fibronectin modules (F3(1-2)) of NCAM [2]: binding
Molecule: RWLKNGKEFK (Derived from FGFR) [SEQ ID NO:3, FGFR1-Ig2 derived peptide (amino acids 189-198)]

binding to the immobilized fibronectin modules (F3(1-2)) of NCAM [2]: binding
Molecule: AKTVKFK (Derived from FGFR) [SEQ ID NO:2, FGFR1-Ig2 derived peptide (amino acids 171-177)]

Kd (NCAM F3 modules 1-2): 35 µM
B1: FGFR Ig2 module: recombinant Ig2 module of mouse FGFR1 (IIIc isoform): AGHHHHHH and amino acids 140-251 of FGFR (SwissProt p16092) (protein)
chain: AGHHHHHHETDNTKPNRRPVAPYWTSPEKMEKKLHAVPAAKTVKFKCPSSGTPNPTLRWLKNGKEFKPDHRIGGYKVRYATWSIIMDSVVPSDKGNYTCIVENEYGSINHTYQLDVVERS

Kd (FGFR1 Ig2 module): 12 µM
B2: NCAM F3 modules 1-2: recombinant rat NCAM fibronectin type III modules 1-2 with AGHHHHHH tag (SwissProt p13596) (protein)
chain: AGHHHHHHQADTPSSPSIDRVEPYSSTAQVQFDEPEATGGVPILKYKAEWKSLGEEAWHSKWYDAKEANMEGIVTIMGLKPETRYAVRLAALNGKGLGEISAATEFKTQPVREPSAPKLEGQMGEDGNSIKVNLIKQDDGGSPIRHYLVKYRALASEWKPEIRLPSGSDHVMLKSLDWNAEYEVYVVAENQQGKSKAAHFVFRTSAQ
Kd (FGFR Ig2-Ig3 construct): 10 µM
